Non-standard residues stand in square brackets, D forms with d. No end group written: not given here. *: point of attachment. X3 = ((1S)-1-Carboxy-2-hydroxyethyl)carbamoyl, O=C(O)[C@H](CO)NC(=O)*; X2 = (tetrahydro-2H-pyran-4-ylmethyl)carbamoyl, O=C(NCC1CCOCC1)*; X8 = (2-Hydroxy-1-(hydroxymethyl)ethyl)carbamoyl, O=C(NC(CO)CO)*; X7 = (tetrahydro-2H-pyran-4-yl)carbamoyl, O=C(NC1CCOCC1)*; (3-carboxypropyl)carbamoyl = O=C(O)CCCNC(=O)*; (2-carboxyethyl)carbamoyl = O=C(O)CCNC(=O)*; (carboxymethyl)carbamoyl = O=C(O)CNC(=O)*; Tetrahydropyran4carbonyl = O=C(C1CCOCC1)*; tBuAla = CC(C)(C)C[C@H](N)C(=O)O; 4Pal = N[C@@H](Cc1ccncc1)C(=O)O; dHyp = O=C(O)[C@H]1C[C@H](O)CN1; Cha = N[C@@H](CC1CCCCC1)C(=O)O; 4Amb = NCc1ccc(C(=O)O)cc1; Iva = CC[C@](C)(N)C(=O)O; Nva = CCC[C@H](N)C(=O)O; Aib = CC(C)(N)C(=O)O; Carbamoyl = NC(=O)*
T1: human Y2 receptor (human, UniProt P49146 1-381)
T1 sequence (looked up): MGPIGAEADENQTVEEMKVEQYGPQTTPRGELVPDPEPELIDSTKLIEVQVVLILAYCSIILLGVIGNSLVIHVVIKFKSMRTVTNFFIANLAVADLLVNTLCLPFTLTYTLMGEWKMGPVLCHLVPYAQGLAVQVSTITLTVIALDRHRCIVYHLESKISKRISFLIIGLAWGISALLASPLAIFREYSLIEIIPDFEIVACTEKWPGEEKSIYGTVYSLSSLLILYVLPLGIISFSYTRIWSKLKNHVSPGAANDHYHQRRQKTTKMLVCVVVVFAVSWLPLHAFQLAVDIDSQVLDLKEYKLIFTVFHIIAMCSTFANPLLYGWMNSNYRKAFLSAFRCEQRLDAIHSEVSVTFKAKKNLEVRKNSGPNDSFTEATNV

B1: (Carboxymethyl)carbamoyl-[D-Pro24, Iva25, Pya(4)26, Cha27,36, Aib28,31, Lys30]-PYY(23-36) (peptide)
peptide: {(carboxymethyl)carbamoyl}-S[dP][Iva][4Pal][Cha][Aib]NK[Aib]TRQR[Cha]-NH2
SMILES: CC[C@](C)(NC(=O)[C@H]1CCCN1C(=O)[C@H](CO)NC(=O)NCC(=O)O)C(=O)N[C@@H](Cc1ccncc1)C(=O)N[C@@H](CC1CCCCC1)C(=O)NC(C)(C)C(=O)N[C@@H](CC(N)=O)C(=O)N[C@@H](CCCCN)C(=O)NC(C)(C)C(=O)N[C@H](C(=O)N[C@@H](CCCNC(=N)N)C(=O)N[C@@H](CCC(N)=O)C(=O)N[C@@H](CCCNC(=N)N)C(=O)N[C@@H](CC1CCCCC1)C(N)=O)[C@@H](C)O
B2: [(1S)-1-Carboxy-2-hydroxyethyl]carbamoyl-[D-Pro24, Iva25, Pya(4)26, Cha27,36, Aib28,31, Lys30]-PYY(23-36) (peptide)
peptide: X3-S[dP][Iva][4Pal][Cha][Aib]NK[Aib]TRQR[Cha]-NH2
SMILES: CC[C@](C)(NC(=O)[C@H]1CCCN1C(=O)[C@H](CO)NC(=O)N[C@@H](CO)C(=O)O)C(=O)N[C@@H](Cc1ccncc1)C(=O)N[C@@H](CC1CCCCC1)C(=O)NC(C)(C)C(=O)N[C@@H](CC(N)=O)C(=O)N[C@@H](CCCCN)C(=O)NC(C)(C)C(=O)N[C@H](C(=O)N[C@@H](CCCNC(=N)N)C(=O)N[C@@H](CCC(N)=O)C(=O)N[C@@H](CCCNC(=N)N)C(=O)N[C@@H](CC1CCCCC1)C(N)=O)[C@@H](C)O
B3: Carbamoyl-[D-Pro24, Cha27,28,36, Aib31]-PYY(23-36) (peptide)
peptide: Carbamoyl-S[dP]RH[Cha][Cha]NL[Aib]TRQR[Cha]-NH2
SMILES: CC(C)C[C@H](NC(=O)[C@H](CC(N)=O)NC(=O)[C@H](CC1CCCCC1)NC(=O)[C@H](CC1CCCCC1)NC(=O)[C@H](Cc1c[nH]cn1)NC(=O)[C@H](CCCNC(=N)N)NC(=O)[C@H]1CCCN1C(=O)[C@H](CO)NC(N)=O)C(=O)NC(C)(C)C(=O)N[C@H](C(=O)N[C@@H](CCCNC(=N)N)C(=O)N[C@@H](CCC(N)=O)C(=O)N[C@@H](CCCNC(=N)N)C(=O)N[C@@H](CC1CCCCC1)C(N)=O)[C@@H](C)O
notes: also called compound No. 130; Ureido-[D-Pro24,Cha27,28,36,Aib31]-PYY(23-36)
B4: 4-Aminomethylbenzoyl-[D-Arg25, Ala26, Ile28,31]-PYY(25-36) (peptide)
peptide: [4Amb][dR]AYINLITRQRY-NH2
modifications: N-terminus assumed
SMILES: CC[C@H](C)[C@H](NC(=O)[C@H](Cc1ccc(O)cc1)NC(=O)[C@H](C)NC(=O)[C@@H](CCCNC(=N)N)NC(=O)c1ccc(CN)cc1)C(=O)N[C@@H](CC(N)=O)C(=O)N[C@@H](CC(C)C)C(=O)N[C@H](C(=O)N[C@H](C(=O)N[C@@H](CCCNC(=N)N)C(=O)N[C@@H](CCC(N)=O)C(=O)N[C@@H](CCCNC(=N)N)C(=O)N[C@@H](Cc1ccc(O)cc1)C(N)=O)[C@@H](C)O)[C@@H](C)CC
notes: also called compound No. 9
B5: [2-Hydroxy-1-(hydroxymethyl)ethyl]carbamoyl-[D-Pro24, Iva25, Pya(4)26, Cha27,36, Aib28,31, Lys30]-PYY(23-36) (peptide)
peptide: X8-S[dP][Iva][4Pal][Cha][Aib]NK[Aib]TRQR[Cha]-NH2
SMILES: CC[C@](C)(NC(=O)[C@H]1CCCN1C(=O)[C@H](CO)NC(=O)NC(CO)CO)C(=O)N[C@@H](Cc1ccncc1)C(=O)N[C@@H](CC1CCCCC1)C(=O)NC(C)(C)C(=O)N[C@@H](CC(N)=O)C(=O)N[C@@H](CCCCN)C(=O)NC(C)(C)C(=O)N[C@H](C(=O)N[C@@H](CCCNC(=N)N)C(=O)N[C@@H](CCC(N)=O)C(=O)N[C@@H](CCCNC(=N)N)C(=O)N[C@@H](CC1CCCCC1)C(N)=O)[C@@H](C)O
B6: (2-Carboxyethyl)carbamoyl-[D-Pro24, Iva25, Pya(4)26, Cha27,36, Aib28,31, Lys30]-PYY(23-36) (peptide)
peptide: {(2-carboxyethyl)carbamoyl}-S[dP][Iva][4Pal][Cha][Aib]NK[Aib]TRQR[Cha]-NH2
SMILES: CC[C@](C)(NC(=O)[C@H]1CCCN1C(=O)[C@H](CO)NC(=O)NCCC(=O)O)C(=O)N[C@@H](Cc1ccncc1)C(=O)N[C@@H](CC1CCCCC1)C(=O)NC(C)(C)C(=O)N[C@@H](CC(N)=O)C(=O)N[C@@H](CCCCN)C(=O)NC(C)(C)C(=O)N[C@H](C(=O)N[C@@H](CCCNC(=N)N)C(=O)N[C@@H](CCC(N)=O)C(=O)N[C@@H](CCCNC(=N)N)C(=O)N[C@@H](CC1CCCCC1)C(N)=O)[C@@H](C)O
B7: (Tetrahydro-2H-pyran-4-yl)carbonyl-[D-Pro24, Iva25, Pya(4)26, Cha27,36, Aib28,31, Lys30]-PYY(23-36) (peptide)
peptide: Tetrahydropyran4carbonyl-S[dP][Iva][4Pal][Cha][Aib]NK[Aib]TRQR[Cha]-NH2
SMILES: CC[C@](C)(NC(=O)[C@H]1CCCN1C(=O)[C@H](CO)NC(=O)C1CCOCC1)C(=O)N[C@@H](Cc1ccncc1)C(=O)N[C@@H](CC1CCCCC1)C(=O)NC(C)(C)C(=O)N[C@@H](CC(N)=O)C(=O)N[C@@H](CCCCN)C(=O)NC(C)(C)C(=O)N[C@H](C(=O)N[C@@H](CCCNC(=N)N)C(=O)N[C@@H](CCC(N)=O)C(=O)N[C@@H](CCCNC(=N)N)C(=O)N[C@@H](CC1CCCCC1)C(N)=O)[C@@H](C)O
B8: (Tetrahydro-2H-pyran-4-yl)carbamoyl-[D-Pro24, Iva25, Pya(4)26, Cha27,36, Aib28,31, Lys30]-PYY(23-36) (peptide)
peptide: X7-S[dP][Iva][4Pal][Cha][Aib]NK[Aib]TRQR[Cha]-NH2
SMILES: CC[C@](C)(NC(=O)[C@H]1CCCN1C(=O)[C@H](CO)NC(=O)NC1CCOCC1)C(=O)N[C@@H](Cc1ccncc1)C(=O)N[C@@H](CC1CCCCC1)C(=O)NC(C)(C)C(=O)N[C@@H](CC(N)=O)C(=O)N[C@@H](CCCCN)C(=O)NC(C)(C)C(=O)N[C@H](C(=O)N[C@@H](CCCNC(=N)N)C(=O)N[C@@H](CCC(N)=O)C(=O)N[C@@H](CCCNC(=N)N)C(=O)N[C@@H](CC1CCCCC1)C(N)=O)[C@@H](C)O
B9: (Tetrahydro-2H-pyran-4-ylmethyl)carbamoyl-[D-Pro24, Iva25, Pya(4)26, Cha27,36, Aib28,31, Lys30]-PYY(23-36) (peptide)
peptide: X2-S[dP][Iva][4Pal][Cha][Aib]NK[Aib]TRQR[Cha]-NH2
SMILES: CC[C@](C)(NC(=O)[C@H]1CCCN1C(=O)[C@H](CO)NC(=O)NCC1CCOCC1)C(=O)N[C@@H](Cc1ccncc1)C(=O)N[C@@H](CC1CCCCC1)C(=O)NC(C)(C)C(=O)N[C@@H](CC(N)=O)C(=O)N[C@@H](CCCCN)C(=O)NC(C)(C)C(=O)N[C@H](C(=O)N[C@@H](CCCNC(=N)N)C(=O)N[C@@H](CCC(N)=O)C(=O)N[C@@H](CCCNC(=N)N)C(=O)N[C@@H](CC1CCCCC1)C(N)=O)[C@@H](C)O
B10: (3-Carboxypropyl)carbamoyl-[D-Pro24, Iva25, Pya(4)26, Cha27,36, Aib28,31, Lys30]-PYY(23-36) (peptide)
peptide: {(3-carboxypropyl)carbamoyl}-S[dP][Iva][4Pal][Cha][Aib]NK[Aib]TRQR[Cha]-NH2
SMILES: CC[C@](C)(NC(=O)[C@H]1CCCN1C(=O)[C@H](CO)NC(=O)NCCCC(=O)O)C(=O)N[C@@H](Cc1ccncc1)C(=O)N[C@@H](CC1CCCCC1)C(=O)NC(C)(C)C(=O)N[C@@H](CC(N)=O)C(=O)N[C@@H](CCCCN)C(=O)NC(C)(C)C(=O)N[C@H](C(=O)N[C@@H](CCCNC(=N)N)C(=O)N[C@@H](CCC(N)=O)C(=O)N[C@@H](CCCNC(=N)N)C(=O)N[C@@H](CC1CCCCC1)C(N)=O)[C@@H](C)O
B11: Ac-[Glu23, D-Hyp24, Iva25, Pya(4)26, Cha27,36, Leu(Me)28, Lys30, Aib31]-PYY(23-36) (peptide)
peptide: Ac-E[dHyp][Iva][4Pal][Cha][tBuAla]NK[Aib]TRQR[Cha]-NH2
SMILES: CC[C@](C)(NC(=O)[C@H]1C[C@H](O)CN1C(=O)[C@H](CCC(=O)O)NC(C)=O)C(=O)N[C@@H](Cc1ccncc1)C(=O)N[C@@H](CC1CCCCC1)C(=O)N[C@@H](CC(C)(C)C)C(=O)N[C@@H](CC(N)=O)C(=O)N[C@@H](CCCCN)C(=O)NC(C)(C)C(=O)N[C@H](C(=O)N[C@@H](CCCNC(=N)N)C(=O)N[C@@H](CCC(N)=O)C(=O)N[C@@H](CCCNC(=N)N)C(=O)N[C@@H](CC1CCCCC1)C(N)=O)[C@@H](C)O
B12: Ac-[D-Pro24, Iva25, Pya(4)26, Cha27,36, Nva28, Aib31, Lys30]-PYY(23-36) (peptide)
peptide: Ac-S[dP][Iva][4Pal][Cha][Nva]NK[Aib]TRQR[Cha]-NH2
SMILES: CCC[C@H](NC(=O)[C@H](CC1CCCCC1)NC(=O)[C@H](Cc1ccncc1)NC(=O)[C@](C)(CC)NC(=O)[C@H]1CCCN1C(=O)[C@H](CO)NC(C)=O)C(=O)N[C@@H](CC(N)=O)C(=O)N[C@@H](CCCCN)C(=O)NC(C)(C)C(=O)N[C@H](C(=O)N[C@@H](CCCNC(=N)N)C(=O)N[C@@H](CCC(N)=O)C(=O)N[C@@H](CCCNC(=N)N)C(=O)N[C@@H](CC1CCCCC1)C(N)=O)[C@@H](C)O

Key:
[1] = molecular target: human Y2 receptor (human) (UniProt P49146); test: cell-based or functional assay
[2] = molecular target: human Y2 receptor (human) (UniProt P49146); test: RBA: displacement of [125I]-PYY from hY2R/CHO membranes
[3] = molecular target: T1, human Y2 receptor; test: cell-based or functional assay
[4] = molecular target: T1, human Y2 receptor; test: RBA: [125I]-PYY displacement, hY2R/CHO membranes
Procedure: After incubation at room temperature for 60 minutes, the mixture was filtered through the cell harvester FilterMate (PerkinElmer) using UniFilter-96 GF/C treated with polyethylenimine (PEI) solution (20 mM Tris, 0.3% PEI, pH 7.4), and the filter was washed 3 times with a filtering buffer (50 mM Tris, 5 mM MgCl₂, 150 mM NaCl, 0.03% NaN₃, 0.05% CHAPS, pH 7.4). Thereafter, UniFilter-96 GF/C was dried in a mechanical drier for 1 hour, 15 μl of the liquid scintillator MicroScint O (PerkinElmer) was added to each well, and a measurement was taken using TopCount (PerkinElmer). The data obtained were analyzed using Prism to calculate the IC₅₀ value.

Binder	GBA EC50 Ratio ([35S]GTPγS binding) (EC50 compound/EC50 PYY(3-36)) [1]	IC50 Ratio (IC50 compound/IC50 PYY(3-36)) [2]	GBA EC50 Ratio (vs PYY(3-36)), [35S]GTPγS [3]	IC50 Ratio (vs PYY(3-36)) [4]
B1	1.6	3		
B2	3	3.5		
B3			1 ratio	1.8 ratio
B4			23 ratio	92 ratio
B5	2	1.76		
B6	2.4	3.2		
B7	1.9	3.3		
B8	1.8	1.7		
B9	1.9	1.7		
B10	1.9	1.6		
B11	1.9	1.2		
B12	1.3	1.6		
Carbamoylmethylcarbamoyl-S[dP][Iva][4Pal][Cha][Aib]NK[Aib]TRQR[Cha]-NH2 [Carbamoylmethylcarbamoyl-[D-Pro24, Iva25, Pya(4)26, Cha27,36, Aib28,31, Lys30]-PYY(23-36)]	1.7	1.7		
